Reference: patent US20250326807A1, “CALPROTECTIN BINDING PEPTIDES” (Buehlmann Laboratories AG, priority 2022, published 2025)

B1: P9A (peptide)
chain: RSPESVAFAMFQSHWYSG
B2: V6A (peptide)
chain: RSPESAAFPMFQSHWYSG
B3: P3A (peptide)
chain: RCAECVAFPMFQCHWYCG
B4: A7G (peptide)
chain: RCPECVGFPMFQCHWYCG
B5: G18A (peptide)
chain: RSPESVAFPMFQSHWYSA
B6: V6A (peptide)
chain: RCPECAAFPMFQCHWYCG
B7: E4A (peptide)
chain: RSPASVAFPMFQSHWYSG
B8: W15A (peptide)
chain: RCPECVAFPMFQCHAYCG
B9: R1A (peptide)
chain: ACPECVAFPMFQCHWYCG
B10: W15A (peptide)
chain: RSPESVAFPMFQSHAYSG
B11: R1A (peptide)
chain: ASPESVAFPMFQSHWYSG
B12: G18A (peptide)
chain: RCPECVAFPMFQCHWYCA
B13: Q12A (peptide)
chain: RCPECVAFPMFACHWYCG
B14: A7G (peptide)
chain: RSPESVGFPMFQSHWYSG
B15: P3A (peptide)
chain: RSAESVAFPMFQSHWYSG
B16: Q12A (peptide)
chain: RSPESVAFPMFASHWYSG
B17: E4A (peptide)
chain: RCPACVAFPMFQCHWYCG
B18: P9A (peptide)
chain: RCPECVAFAMFQCHWYCG
B19: F11 L-Ala (peptide)
chain: RCPECVAFPMAQCHWYCG
B20: F8 Tyr (peptide)
chain: RCPECVAYPMFQCHWYCG
B21: F11 Gln (peptide)
chain: RCPECVAFPMQQCHWYCG
B22: F11 Glu (peptide)
chain: RCPECVAFPMEQCHWYCG
B23: F8 L-Ala (peptide)
chain: RCPECVAAPMFQCHWYCG
B24: Y16 L-Ala (peptide)
chain: RCPECVAFPMFQCHWACG
B25: H14 L-Ala (peptide)
chain: RCPECVAFPMFQCAWYCG
B26: F11 Lys (peptide)
chain: RCPECVAFPMKQCHWYCG
B27: F8 Ile (peptide)
chain: RCPECVAIPMFQCHWYCG
B28: F11 Ile (peptide)
chain: RCPECVAFPMIQCHWYCG
B29: F8 Gln (peptide)
chain: RCPECVAQPMFQCHWYCG
B30: F8 Glu (peptide)
chain: RCPECVAEPMFQCHWYCG

Biological target: T1, Recombinantly expressed fused calprotectin (His6-linker-S100A9-linker-S100A8), product code B-RCAL, BÜHLMANN Laboratories AG (human), P06702
T1 chain: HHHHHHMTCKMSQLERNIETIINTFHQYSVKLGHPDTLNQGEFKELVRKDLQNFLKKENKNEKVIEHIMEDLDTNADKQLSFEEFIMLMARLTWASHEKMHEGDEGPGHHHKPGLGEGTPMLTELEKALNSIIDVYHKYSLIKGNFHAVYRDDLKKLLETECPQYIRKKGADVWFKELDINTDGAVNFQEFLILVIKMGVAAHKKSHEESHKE
Test: fluorescence polarization
Details: modification not given

Row | Binder | Kd [nM]
1 | B1 | 30
2 | B2 | 39
3 | B3 | 28
4 | B4 | 29
5 | B5 | 31
6 | B6 | 39
7 | B7 | 26
8 | B8 | 24
9 | B9 | 32
10 | B10 | 24
11 | B11 | 32
12 | B12 | 31
13 | B13 | 27
14 | B14 | 29
15 | B15 | 28
16 | B16 | 27
17 | B17 | 26
18 | B18 | 30

Biological target: T1, Recombinantly expressed fused …
Test: SPR
Details: modification not given

Row | Binder | Kd [nM]
19 | B19 | > 10000
20 | B20 | > 10000
21 | B21 | > 10000
22 | B22 | > 10000
23 | B23 | > 10000
24 | B24 | > 10000
25 | B25 | > 10000
26 | B26 | > 10000
27 | B27 | > 10000
28 | B28 | > 10000
29 | B29 | > 10000
30 | B30 | > 10000
